Assay results: paper PMC9396825
Blank lines part the entries; values can stand above or below the molecule they belong to.

How the values were obtained:
[1] = target: Pan1-FKBP (yeast Eps15-like protein Pan1p with a C-terminal FKBP tag) (yeast) (UniProt P32521); test: inducible peroxisome redistribution assay
[2] = target: T1, Pan1-FKBP (yeast Eps15-like protein Pan1p with a C-terminal FKBP tag) (yeast), P32521; test: inducible peroxisome redistribution assay; details: remark: other sources report otherwise
T1 chain: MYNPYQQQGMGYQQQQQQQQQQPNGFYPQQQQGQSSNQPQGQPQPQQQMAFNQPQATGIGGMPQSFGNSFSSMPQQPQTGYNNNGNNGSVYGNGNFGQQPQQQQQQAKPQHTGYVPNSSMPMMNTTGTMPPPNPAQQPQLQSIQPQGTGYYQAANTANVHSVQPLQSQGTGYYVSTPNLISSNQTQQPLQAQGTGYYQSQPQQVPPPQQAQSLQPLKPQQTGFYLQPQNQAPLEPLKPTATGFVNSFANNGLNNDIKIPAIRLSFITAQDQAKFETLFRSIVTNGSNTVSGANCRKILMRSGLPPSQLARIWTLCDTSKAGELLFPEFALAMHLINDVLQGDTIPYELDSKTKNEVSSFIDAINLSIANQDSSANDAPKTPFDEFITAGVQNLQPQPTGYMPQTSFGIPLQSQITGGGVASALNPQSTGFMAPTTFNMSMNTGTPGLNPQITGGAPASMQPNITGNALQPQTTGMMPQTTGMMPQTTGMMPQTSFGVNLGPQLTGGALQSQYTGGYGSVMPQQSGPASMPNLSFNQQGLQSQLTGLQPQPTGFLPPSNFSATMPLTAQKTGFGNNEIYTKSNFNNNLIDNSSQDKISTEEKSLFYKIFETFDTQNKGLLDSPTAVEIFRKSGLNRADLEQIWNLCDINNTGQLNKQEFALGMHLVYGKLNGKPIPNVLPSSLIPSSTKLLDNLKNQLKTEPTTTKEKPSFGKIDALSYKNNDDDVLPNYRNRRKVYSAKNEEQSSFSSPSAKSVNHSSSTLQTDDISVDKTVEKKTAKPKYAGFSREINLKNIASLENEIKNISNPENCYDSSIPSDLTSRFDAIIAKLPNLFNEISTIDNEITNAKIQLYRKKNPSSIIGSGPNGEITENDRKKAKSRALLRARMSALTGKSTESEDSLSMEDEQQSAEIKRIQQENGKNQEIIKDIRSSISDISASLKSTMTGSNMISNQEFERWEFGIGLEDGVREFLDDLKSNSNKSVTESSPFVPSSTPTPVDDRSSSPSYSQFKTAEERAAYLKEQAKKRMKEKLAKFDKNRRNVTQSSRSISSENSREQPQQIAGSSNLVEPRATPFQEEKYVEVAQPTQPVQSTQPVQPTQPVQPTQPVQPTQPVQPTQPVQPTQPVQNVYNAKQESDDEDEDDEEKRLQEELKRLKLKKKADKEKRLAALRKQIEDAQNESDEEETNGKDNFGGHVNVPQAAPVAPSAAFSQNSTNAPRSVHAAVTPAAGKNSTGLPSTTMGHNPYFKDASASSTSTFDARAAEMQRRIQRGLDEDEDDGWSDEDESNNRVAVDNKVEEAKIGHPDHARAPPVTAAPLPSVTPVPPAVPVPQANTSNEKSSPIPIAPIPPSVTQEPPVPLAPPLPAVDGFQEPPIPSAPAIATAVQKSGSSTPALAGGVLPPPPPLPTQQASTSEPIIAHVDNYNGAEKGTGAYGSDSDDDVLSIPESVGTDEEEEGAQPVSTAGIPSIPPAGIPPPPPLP

percent localized to the peroxisome [1]: 66.7%
Molecule: GFP-tagged Ent2p (from UniProt Q05785 1-613) (natural protein)

percent localized to the peroxisome [1]: 72%
Molecule: GFP-fused Sla2p (from UniProt P33338 1-968) (natural protein)

percent localized to the peroxisome [1]: 64%
Molecule: Ent1-GFP (from UniProt Q12518 1-454) (natural protein)

percent localized to the peroxisome [2]: 63.3%
B1: Sla1-GFP, P32790 1-1244 (natural protein)
chain: MTVFLGIYRAVYAYEPQTPEELAIQEDDLLYLLQKSDIDDWWTVKKRVIGSDSEEPVGLVPSTYIEEAPVLKKVRAIYDYEQVQNADEELTFHENDVFDVFDDKDADWLLVKSTVSNEFGFIPGNYVEPENGSTSKQEQAPAAAEAPAATPAAAPASAAVLPTNFLPPPQHNDRARMMQSKEDQAPDEDEEGPPPAMPARPTATTETTDATAAAVRSRTRLSYSDNDNDDEEDDYYYNSNSNNVGNHEYNTEYHSWNVTEIEGRKKKKAKLSIGNNKINFIPQKGTPHEWSIDKLVSYDNEKKHMFLEFVDPYRSLELHTGNTTTCEEIMNIIGEYKGASRDPGLREVEMASKSKKRGIVQYDFMAESQDELTIKSGDKVYILDDKKSKDWWMCQLVDSGKSGLVPAQFIEPVRDKKHTESTASGIIKSIKKNFTKSPSRSRSRSRSKSNANASWKDDELQNDVVGSAAGKRSRKSSLSSHKKNSSATKDFPNPKKSRLWVDRSGTFKVDAEFIGCAKGKIHLHKANGVKIAVAADKLSNEDLAYVEKITGFSLEKFKANDGSSSRGTDSRDSERERRRRLKEQEEKERDRRLKERELYELKKARELLDEERSRLQEKELPPIKPPRPTSTTSVPNTTSVPPAESSNNNNSSNKYDWFEFFLNCGVDVSNCQRYTINFDREQLTEDMMPDINNSMLRTLGLREGDIVRVMKHLDKKFGRENIASIPTNATGNMFSQPDGSLNVATSPETSLPQQLLPQTTSPAQTAPSTSAETDDAWTVKPASKSESNLLSKKSEFTGSMQDLLDLQPLEPKKAAASTPEPNLKDLEPVKTGGTTVPAAPVSSAPVSSAPAPLDPFKTGGNNILPLSTGFVMMPMITGGDMLPMQRTGGFVVPQTTFGMQSQVTGGILPVQKTGNGLIPISNTGGAMMPQTTFGAAATVLPLQKTGGGLIPIATTGGAQFPQTSFNVQGQQQLPTGSILPVQKTANGLISANTGVSMPTVQRTGGTMIPQTSFGVSQQLTGGAMMTQPQNTGSAMMPQTSFNAVPQITGGAMMPQTSFNALPQVTGGAMMPLQRTGGALNTFNTGGAMIPQTSFSSQAQNTGGFRPQSQFGLTLQKTGGIAPLNQNQFTGGAMNTLSTGGVLQQQQPQTMNTFNTGGVMQELQMMTTFNTGGAMQQPQMMNTFNTDGIMQQPQMMNTFNTGGAMQQPQQQALQNQPTGFGFGNGPQQSRQANIFNATASNPFGF
